Data from publication PMC2929599 (Biochemistry, 2009).
Each block holds one molecule with its values, some of them ahead of it.

Experiments:
[1] = target: T1, hTHEM2 (human hotdog-fold thioesterase THEM2, thioesterase superfamily member 2) (Homo sapiens, UniProt Q9NPJ3); assay: steady-state competitive inhibition, DTNB thioesterase assay; assay type: biochemical
T1 sequence (Q9NPJ3 1-140): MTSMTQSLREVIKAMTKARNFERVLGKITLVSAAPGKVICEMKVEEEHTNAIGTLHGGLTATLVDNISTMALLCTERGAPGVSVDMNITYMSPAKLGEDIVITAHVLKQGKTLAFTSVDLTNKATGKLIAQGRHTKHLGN

[2] = substrate: CC(C)(COP(=O)(O)OP(=O)(O)OC[C@H]1O[C@@H](n2cnc3c(N)ncnc32)[C@H](O)[C@@H]1OP(=O)(O)O)[C@@H](O)C(=O)NCCC(=O)NCCSC(=O)Cc1ccc(O)c(O)c1; assay: steady-state hydrolysis kinetics; assay type: biochemical, Homo sapiens; details: pH 7.5; 25.0 °C
[3] = substrate: CCCCCC/C=C\CCCCCCCC(=O)SCCNC(=O)CCNC(=O)[C@H](O)C(C)(C)COP(=O)(O)OP(=O)(O)OC[C@H]1O[C@@H](n2cnc3c(N)ncnc32)[C@H](O)[C@@H]1OP(=O)(O)O; assay: steady-state hydrolysis kinetics; assay type: biochemical, Homo sapiens; details: pH 7.5; 25.0 °C
[4] = substrate: CCCCCCCCCCCC(=O)SCCNC(=O)CCNC(=O)[C@H](O)C(C)(C)COP(=O)(O)OP(=O)(O)OC[C@H]1O[C@@H](n2cnc3c(N)ncnc32)[C@H](O)[C@@H]1OP(=O)(O)O; assay: steady-state hydrolysis kinetics; assay type: biochemical, Homo sapiens; details: pH 7.5; 25.0 °C
[5] = substrate: CCCCCCCCCC(=O)SCCNC(=O)CCNC(=O)[C@H](O)C(C)(C)COP(=O)(O)OP(=O)(O)OC[C@H]1O[C@@H](n2cnc3c(N)ncnc32)[C@H](O)[C@@H]1OP(=O)(O)O; assay: steady-state hydrolysis kinetics; assay type: biochemical, Homo sapiens; details: pH 7.5; 25.0 °C
[6] = substrate: CC(C)(COP(=O)(O)OP(=O)(O)OC[C@H]1O[C@@H](n2cnc3c(N)ncnc32)[C@H](O)[C@@H]1OP(=O)(O)O)[C@@H](O)C(=O)NCCC(=O)NCCSC(=O)Cc1cccc(O)c1; assay: steady-state hydrolysis kinetics; assay type: biochemical, Homo sapiens; details: pH 7.5; 25.0 °C
[7] = substrate: CCCCCCCC/C=C\CCCCCCCC(=O)SCCNC(=O)CCNC(=O)[C@H](O)C(C)(C)COP(=O)(O)OP(=O)(O)OC[C@H]1O[C@@H](n2cnc3c(N)ncnc32)[C@H](O)[C@@H]1OP(=O)(O)O; assay: steady-state hydrolysis kinetics; assay type: biochemical, Homo sapiens; details: pH 7.5; 25.0 °C
purified protein = substrate: CCCCCCCCCCCCCC(=O)SCCNC(=O)CCNC(=O)[C@H](O)C(C)(C)COP(=O)(O)OP(=O)(O)OC[C@H]1O[C@@H](n2cnc3c(N)ncnc32)[C@H](O)[C@@H]1OP(=O)(O)O; assay: purified protein; details: pH 7.5; 25.0 °C

Ki [1]: 9 µM
Molecule: CCNC(=O)CCNC(=O)[C@H](O)C(C)(C)COP(=O)(O)OP(=O)(O)OC[C@H]1O[C@@H](n2cnc3c(N)ncnc32)[C@H](O)[C@@H]1OP(=O)(O)O [desulfoCoA]

B1: hTHEM2 (human hotdog-fold thioesterase THEM2, thioesterase superfamily member 2) (Homo sapiens) (protein)
chain: MTSMTQSLREVIKAMTKARNFERVLGKITLVSAAPGKVICEMKVEEEHTNAIGTLHGGLTATLVDNISTMALLCTERGAPGVSVDMNITYMSPAKLGEDIVITAHVLKQGKTLAFTSVDLTNKATGKLIAQGRHTKHLGN
Km [2]: 10 µM
kcat [2]: 0.19 ± 0.01 s⁻¹
kcat/Km [2]: 18000 M⁻¹ s⁻¹
Km [3]: 9 µM
kcat [3]: 0.017 ± 0.001 s⁻¹
kcat/Km [3]: 1900 M⁻¹ s⁻¹
Km [4]: 9.9 µM
kcat [4]: 0.019 ± 0.001 s⁻¹
kcat/Km [4]: 1900 M⁻¹ s⁻¹
Km [5]: 4.9 µM
kcat [5]: 0.016 ± 0.001 s⁻¹
kcat/Km [5]: 3300 M⁻¹ s⁻¹
Km [6]: 41 µM
kcat [6]: 1.4 ± 0.1 s⁻¹
kcat/Km [6]: 35000 M⁻¹ s⁻¹
Km [7]: 9 µM
kcat [7]: 0.011 ± 0.001 s⁻¹
kcat/Km [7]: 1300 M⁻¹ s⁻¹
Km (purified protein): 5 µM
kcat (purified protein): 0.02 s⁻¹
kcat/Km (purified protein): 4000 M⁻¹ s⁻¹
